The Kd is the equilibrium constant for the complex coming apart.

Results on 1 substance are retold here after patent publication US20230133118A1, “COMPOSITIONS AND METHODS FOR TREATING CANCER” (Adagene AG, priority 2020, published 2023).

The target in this test is human CD137 (human) (UniProt Q07011). Kind of test: surface plasmon resonance (SPR); format not described. (In general: Surface plasmon resonance follows binding to a sensor surface in real time, without labels.)
Sequence of human CD137 (human) (Q07011 24-186 limits assumed): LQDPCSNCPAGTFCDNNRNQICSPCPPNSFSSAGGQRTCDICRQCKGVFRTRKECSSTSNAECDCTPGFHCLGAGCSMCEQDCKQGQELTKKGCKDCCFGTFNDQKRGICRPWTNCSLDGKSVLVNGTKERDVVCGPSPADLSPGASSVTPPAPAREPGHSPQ

Sequence of Urelumab (antibody) (VH): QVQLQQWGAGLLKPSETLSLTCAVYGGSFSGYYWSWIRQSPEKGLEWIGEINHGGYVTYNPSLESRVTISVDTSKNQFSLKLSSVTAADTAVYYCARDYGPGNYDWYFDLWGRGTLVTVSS
Sequence of Urelumab (antibody) (VL): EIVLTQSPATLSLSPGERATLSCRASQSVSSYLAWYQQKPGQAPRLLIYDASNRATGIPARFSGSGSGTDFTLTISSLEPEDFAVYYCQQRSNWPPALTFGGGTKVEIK

In turn, Urelumab (antibody) gave a Kd of 9.6 nM.
